Patent publication US12227742B2, “Nucleic acid modifiers” (THE BROAD INSTITUTE, INC., priority 2017, dated 2025)

B1: St3Cas9: Streptococcus thermophilus CRISPR-3 Cas9 (protein, UniProt G3ECR1 1-1409, looked up)
CRISPR-associated …: MLFNKCIIISINLDFSNKEKCMTKPYSIGLDIGTNSVGWAVITDNYKVPSKKMKVLGNTSKKYIKKNLLGVLLFDSGITAEGRRLKRTARRRYTRRRNRILYLQEIFSTEMATLDDAFFQRLDDSFLVPDDKRDSKYPIFGNLVEEKVYHDEFPTIYHLRKYLADSTKKADLRLVYLALAHMIKYRGHFLIEGEFNSKNNDIQKNFQDFLDTYNAIFESDLSLENSKQLEEIVKDKISKLEKKDRILKLFPGEKNSGIFSEFLKLIVGNQADFRKCFNLDEKASLHFSKESYDEDLETLLGYIGDDYSDVFLKAKKLYDAILLSGFLTVTDNETEAPLSSAMIKRYNEHKEDLALLKEYIRNISLKTYNEVFKDDTKNGYAGYIDGKTNQEDFYVYLKNLLAEFEGADYFLEKIDREDFLRKQRTFDNGSIPYQIHLQEMRAILDKQAKFYPFLAKNKERIEKILTFRIPYYVGPLARGNSDFAWSIRKRNEKITPWNFEDVIDKESSAEAFINRMTSFDLYLPEEKVLPKHSLLYETFNVYNELTKVRFIAESMRDYQFLDSKQKKDIVRLYFKDKRKVTDKDIIEYLHAIYGYDGIELKGIEKQFNSSLSTYHDLLNIINDKEFLDDSSNEAIIEEIIHTLTIFEDREMIKQRLSKFENIFDKSVLKKLSRRHYTGWGKLSAKLINGIRDEKSGNTILDYLIDDGISNRNFMQLIHDDALSFKKKIQKAQIIGDEDKGNIKEVVKSLPGSPAIKKGILQSIKIVDELVKVMGGRKPESIVVEMARENQYTNQGKSNSQQRLKRLEKSLKELGSKILKENIPAKLSKIDNNALQNDRLYLYYLQNGKDMYTGDDLDIDRLSNYDIDHIIPQAFLKDNSIDNKVLVSSASNRGKSDDFPSLEVVKKRKTFWYQLLKSKLISQRKFDNLTKAERGGLLPEDKAGFIQRQLVETRQITKHVARLLDEKFNNKKDENNRAVRTVKIITLKSTLVSQFRKDFELYKVREINDFHHAHDAYLNAVIASALLKKYPKLEPEFVYGDYPKYNSFRERKSATEKVYFYSNIMNIFKKSISLADGRVIERPLIEVNEETGESVWNKESDLATVRRVLSYPQVNVVKKVEEQNHGLDRGKPKGLFNANLSSKPKPNSNENLVGAKEYLDPKKYGGYAGISNSFAVLVKGTIEKGAKKKITNVLEFQGISILDRINYRKDKLNFLLEKGYKDIELIIELPKYSLFELSDGSRRMLASILSTNNKRGEIHKGNQIFLSQKFVKLLYHAKRISNTINENHRKYVENHKKEFEELFYYILEFNENYVGAKKNGKLLNSAFQSWQNHSIDELCSSFIGPTGSERKGLFELTSRGSAADFEFLGVKIPRYRDYTPSSLLKDATLIHQSVTGLYETRIDLAKLGEG
B2: SaCas9 T787A (protein, UniProt J7RUA5 1-1053, looked up, variant T787A)
CRISPR-associated …: MKRNYILGLDIGITSVGYGIIDYETRDVIDAGVRLFKEANVENNEGRRSKRGARRLKRRRRHRIQRVKKLLFDYNLLTDHSELSGINPYEARVKGLSQKLSEEEFSAALLHLAKRRGVHNVNEVEEDTGNELSTKEQISRNSKALEEKYVAELQLERLKKDGEVRGSINRFKTSDYVKEAKQLLKVQKAYHQLDQSFIDTYIDLLETRRTYYEGPGEGSPFGWKDIKEWYEMLMGHCTYFPEELRSVKYAYNADLYNALNDLNNLVITRDENEKLEYYEKFQIIENVFKQKKKPTLKQIAKEILVNEEDIKGYRVTSTGKPEFTNLKVYHDIKDITARKEIIENAELLDQIAKILTIYQSSEDIQEELTNLNSELTQEEIEQISNLKGYTGTHNLSLKAINLILDELWHTNDNQIAIFNRLKLVPKKVDLSQQKEIPTTLVDDFILSPVVKRSFIQSIKVINAIIKKYGLPNDIIIELAREKNSKDAQKMINEMQKRNRQTNERIEEIIRTTGKENAKYLIEKIKLHDMQEGKCLYSLEAIPLEDLLNNPFNYEVDHIIPRSVSFDNSFNNKVLVKQEENSKKGNRTPFQYLSSSDSKISYETFKKHILNLAKGKGRISKTKKEYLLEERDINRFSVQKDFINRNLVDTRYATRGLMNLLRSYFRVNNLDVKVKSINGGFTSFLRRKWKFKKERNKGYKHHAEDALIIANADFIFKEWKKLDKAKKVMENQMFEEKQAESMPEIETEQEYKEIFITPHQIKHIKDFKDYKYSHRVDKKPNRELINDALYSTRKDDKGNTLIVNNLNGLYDKDNDKLKKLINKSPEKLLMYHHDPQTYQKLKLIMEQYGDEKNPLYKYYEETGNYLTKYSKKDNGPVIKKIKYYGNKLNAHLDITDDYPNSRNKVVKLSLKPYRFDVYLDNGVYKFVTVKNLDVIKKENYYEVNSKCYEEAKKLKKISNQAEFIASFYNNDLIKINGELYRVIGVNNDLLNRIEVNMIDITYREYLENMNDKRPPRIIKTIASKTQSIKKYSTDILGNLYEVKSKKHPQIIKKG

Columns and labels:
target DNA [1] = experiment: SpCas9 DNA cleavage activity, mutational analysis; format: biochemical; conditions: 5′-NGG PAM (5′-GGGCT)
target DNA [2] = experiment: SaCas9 DNA cleavage activity, mutational analysis; format: biochemical

Row | Molecule | cleavage of target DNA with 5′-NGG PAM (target DNA [1]) | DNA cleavage activity (target DNA [2])
1 | B1 | not | –
2 | B2 | – | reduced DNA cleavage activity
